These results are taken from IntAct's records for PubMed 25502805.

The target in the first experiment is vps29_human VPS29 (UniProt Q9UBQ0).
For the substance “Vacuolar protein sorting-associated protein 35 (Homo sapiens) (from UniProt Q96QK1) D620N”, the “effect of a mutation on the interaction” value is listed as “with no effect”. Same read-out and setting: then “Vacuolar protein sorting-associated protein 35 (Homo sapiens) (from UniProt Q96QK1) R524W”, with “with no effect”.

The next experiment deals with hbaz_human HBZ (UniProt P02008).
For “Hemoglobin subunit beta (Homo sapiens), P68871 D100Y”, the “effect of a mutation on the interaction” value is on record as “disrupting interaction strength”. Take “Hemoglobin subunit beta (Homo sapiens), P68871 F104L”: the “effect of a mutation on the interaction” value is “disrupting interaction strength”. “Hemoglobin subunit beta (Homo sapiens), P68871 N103Y”: the “effect of a mutation on the interaction” value is “with no effect”. On to “Hemoglobin subunit beta (Homo sapiens), P68871 F123S”, for which the “effect of a mutation on the interaction” value is reported as “disrupting interaction strength”. Regarding “Hemoglobin subunit beta (Homo sapiens), P68871 H118Y”, the “effect of a mutation on the interaction” value is listed as “disrupting interaction strength”. Regarding “Hemoglobin subunit beta (Homo sapiens), P68871 P101A”, the “effect of a mutation on the interaction” value is recorded as “disrupting interaction strength”. With “Hemoglobin subunit beta (Homo sapiens), P68871 E122V”, the “effect of a mutation on the interaction” value is reported as “disrupting interaction strength”. As to “Hemoglobin subunit beta (Homo sapiens), P68871 V127G”, the “effect of a mutation on the interaction” value is “disrupting interaction strength”. Same read-out and setting: to “Hemoglobin subunit beta (Homo sapiens), P68871 S10C” belongs “disrupting interaction strength”; to “Hemoglobin subunit beta (Homo sapiens), P68871 V114E”, “disrupting interaction strength”; to “Hemoglobin subunit beta (Homo sapiens), P68871 E102Q”, “disrupting interaction strength”. “Hemoglobin subunit beta (Homo sapiens), P68871 L115P”: the “effect of a mutation on the interaction” value is given as “disrupting interaction strength”.
